Where two headings read alike, the source gives them in different places.
Experiments:
Experiment in all cases: ELISA
human LILRB4 [1] = molecular target: T1, human LILRB4 (UniProt Q8NHJ6 22-259)
human LILRB4 [2] = molecular target: T1, human LILRB4; remark: listed apart in the source
human LILRB4 [3] = molecular target: T1, human LILRB4; remark: listed apart in the source

T1 sequence (Q8NHJ6 22-259): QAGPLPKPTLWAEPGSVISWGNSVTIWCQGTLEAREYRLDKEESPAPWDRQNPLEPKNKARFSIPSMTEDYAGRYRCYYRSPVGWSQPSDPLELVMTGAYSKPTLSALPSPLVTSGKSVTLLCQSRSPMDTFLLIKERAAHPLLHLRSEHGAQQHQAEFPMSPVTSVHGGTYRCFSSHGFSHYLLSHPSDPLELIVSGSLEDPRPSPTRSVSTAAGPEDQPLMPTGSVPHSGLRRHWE

B1: anti-LILRB4 rabbit monoclonal antibody #120 (antibody, V domains shown)
VH: QSLEESGGRLVTPGTPLTLTCTVSGIDLNKYAMTWVRQAPGKGLEYIGFINIVGIAGYATWAKGRFTISKTSTTVDLKVTSPTTEDTATYFCARNWIRLDLWGQGTLVTVSS
VL: ELDLTQTPASVSAAVGGTVTISCQSSESLYKKNYLSWFQQKPGQPPKLLIFEASKLASGVPSRFSGSGSGTQFTLTISDVQCDDAASYYCLGDYTNGRDTTFGGGTEVVVK
Work on B1 yielded an EC50 (human LILRB4 [1]) of 0.0119 µg/mL.

B2: anti-LILRB4 rabbit monoclonal antibody #161-2 (antibody, V domains shown)
VH: QSVKESGGRLVTPGTPLTLTCTVSGIDLSVYLMSWVRHSPGKGLEYIGFINSAGITAYATWAKGRFIISKTSTTVDLKVTSPTTEDTATYFCARNWIRLDLWGQGTLVTISS
VL: TQTPASVSAAVGGTVTISCQSSETIYKNYLSWFQQKPGQPPKLLIYESSKLASGVPSRFSGSGSGTQFTLTISDVQCDDAATYYCLGGYTDGRDTIFGGGTEVEIK
B2 showed an EC50 (human LILRB4 [2]) of 0.0126 µg/mL.

B3: anti-LILRB4 rabbit monoclonal antibody #78 (antibody, V domains shown)
VH: QSLQESGGRLVTPGTPLTLTCTVSGIDLSVYLMSWVRQSPGKGLEYIGFINSAGITAYATWAKGRFIISKTSTTVDLKVTSPTTEDTATYFCARNWIRLDLWGQGTLVTISS
VL: ELVLTQTPASVSAAVGGTVTISCQSSESIYKNYLSWFQQKPGQPPKLLIYETSKLASGVPSRFSGSGSGTQFTLTISDVQCDDAATYYCLGGYTNGRDTIFGGGTELEIK
B3 was tested, and the EC50 (human LILRB4 [1]) was 0.0121 µg/mL.

B4: anti-LILRB4 rabbit monoclonal antibody #161-1 (antibody, V domains shown)
VH: QSVKESGGRLVTPGTPLTLTCTVSGIDLSVYLMSWVRHSPGKGLEYIGFINSAGITAYATWAKGRFIISKTSTTVDLKVTSPTTEDTATYFCARNWIRLDLWGQGTLVTISS
VL: ELDLTQTPASVSAAVGGTVTISCQSSETIYKNYLSWFQQKPGQPPKLLIYESSKLASGVPSRFSGSGSGTQFTLTISDVQCDDAATYYCLGGYTDGRDTIFGGGTELEIK
B4 was tested, and the EC50 (human LILRB4 [3]) was 0.0104 µg/mL.

B5: anti-LILRB4 rabbit monoclonal antibody #192 (antibody, V domains shown)
VH: EQSLEESGGGLVTPGGTLTLTCTVSGFSLSNNAMSWVRQAPGKGLEWIGVILLAGPTYYASWAKGRFTISKTSTTVDLKITSPTTEDTATYFCAIAIGSRPFALWGQGTLVTISS
VL: ELVLTQTPSSTSAAVGGTVTINCQSSQSVYSNWLSWFQQKPGQPPKPLIYLASTLASGVPSRFSGSGSGTQFTLTISDVQCDDAATYYCQGGYNGNIYTFGGGTEVVVK
Work on B5 yielded an EC50 (human LILRB4 [3]) of 0.021 µg/mL.

B6: anti-LILRB4 rabbit monoclonal antibody #208 (antibody, V domains shown)
VH: EQSVEESGGGLVTPGGTLTLTCTVSGFSLSNNAMSWVRQAPGKGLEWIGVILLSGTTYYASWAKGRFTISKTSTTVDLKITSPTTEDTATYFCAIAIGSRPFALWGQGTLVTISS
VL: ELVMTQTPSSTSAAVGGTVTINCQSSQSVYSNWLSWFQQKPGQPPKPLIYLASTLASGVPSRFSGSGSGTQFTLTISDVQCDDAATYYCQGGYNGNIYTFGGGTEVVVK
For B6, the EC50 (human LILRB4 [2]) was 0.0198 µg/mL.

Reference: patent US20180086829A1 (published 2018)
